Source: WO2014051109A1 (dated 2014)

Experiments:
[1] = molecular target: human BMP9 recombinant protein (prepared by the method of Example 12 of WO2010/126169; N-terminal His-type hBMP9 complex, vector pLN1V5_hBMP9) (human) (UniProt Q9UK05); assay: SPR (BIAcore 2000), antibody captured by anti-mouse IgG on CM5, human BMP9 as analyte, single cycle kinetics
[2] = molecular target: T1, human BMP9 recombinant protein (prepared by the method of Example 12 of WO2010/126169); N-terminal His-type … (human, UniProt Q9UK05 23-319; Q9UK05 320-429); assay: SPR (BIAcore 2000), ratio of Kd values against the R&D antibody
T1 construct: not shown: N-terminal His tag (His6)
T1 sequence 1: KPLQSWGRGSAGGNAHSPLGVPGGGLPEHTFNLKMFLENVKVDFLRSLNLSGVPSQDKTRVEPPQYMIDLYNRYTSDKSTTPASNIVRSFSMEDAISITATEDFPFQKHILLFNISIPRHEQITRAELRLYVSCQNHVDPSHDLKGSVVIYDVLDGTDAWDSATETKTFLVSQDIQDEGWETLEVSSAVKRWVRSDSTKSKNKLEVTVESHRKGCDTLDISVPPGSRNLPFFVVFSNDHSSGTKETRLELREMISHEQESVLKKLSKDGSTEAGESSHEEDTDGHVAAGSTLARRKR
T1 sequence 2: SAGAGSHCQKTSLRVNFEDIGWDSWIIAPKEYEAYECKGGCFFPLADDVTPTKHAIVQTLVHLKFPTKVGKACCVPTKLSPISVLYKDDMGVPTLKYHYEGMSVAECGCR

[3] = molecular target: T2, human BMP9/10 chimeric protein C (human, UniProt Q9UK05 23-319; Q9UK05 320-429); assay: solid-phase antigen ELISA, recombinant 3C7-3-1 antibody 1000 ng/mL on immobilized antigen (3 ug/mL)
T2 construct: also called BMP9/10 chimeric recombinant protein C; pLN1V5_hBMP9/10C product; not shown: His6 tag
T2 chain 1: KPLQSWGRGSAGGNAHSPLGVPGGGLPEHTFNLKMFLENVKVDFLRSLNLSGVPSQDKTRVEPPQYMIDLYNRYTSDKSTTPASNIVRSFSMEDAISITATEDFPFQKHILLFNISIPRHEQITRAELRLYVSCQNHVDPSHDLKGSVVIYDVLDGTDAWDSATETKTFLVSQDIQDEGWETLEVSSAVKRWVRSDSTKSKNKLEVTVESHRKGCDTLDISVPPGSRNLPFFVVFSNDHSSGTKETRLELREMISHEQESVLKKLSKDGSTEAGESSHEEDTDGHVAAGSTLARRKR
T2 chain 2: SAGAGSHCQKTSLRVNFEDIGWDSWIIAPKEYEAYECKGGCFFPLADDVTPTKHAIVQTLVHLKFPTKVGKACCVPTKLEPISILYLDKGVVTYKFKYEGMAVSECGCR

[4] = molecular target: T1, human BMP9 recombinant protein …; assay: SPR (BIAcore 2000), antibody captured by anti-mouse IgG on CM5, human BMP9 as analyte, single cycle kinetics
[5] = molecular target: T3, human mature dimer BMP9 recombinant protein (R&D Systems, Cat#3209-BP) (human, UniProt Q9UK05 320-429); assay: cell-based or functional assay
T3 sequence: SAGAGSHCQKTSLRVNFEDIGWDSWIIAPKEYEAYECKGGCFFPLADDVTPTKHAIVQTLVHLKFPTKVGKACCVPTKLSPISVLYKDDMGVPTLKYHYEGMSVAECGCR

[6] = molecular target: T4, human mature dimer BMP10 recombinant protein (R&D Systems, Cat#2926-BP) (human, UniProt O95393 317-424); assay: solid-phase antigen ELISA, biotin-labeled antibody on immobilized BMP10
T4 construct: Bought protein; also called human BMP10
T4 sequence: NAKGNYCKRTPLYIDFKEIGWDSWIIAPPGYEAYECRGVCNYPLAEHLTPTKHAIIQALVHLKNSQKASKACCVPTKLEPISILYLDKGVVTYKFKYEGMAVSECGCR

[7] = molecular target: T3, human mature dimer BMP9 recombinant …; assay: solid-phase antigen ELISA, biotin-labeled antibody 100 ng/mL on immobilized BMP9

“R&D antibody (anti-human BMP9 mouse monoclonal antibody, R&D Systems, clone No. 360107)” was tested, and the Kd [1] was 0.616 nM.

B1: 3C7-3-1 antibody (antibody, V domains shown)
VH: EVQLQQSGPELVKPGASVKISCKASGNSFTGYYMNWMKQSPEKSLEWIGEINPSTGATTYNQKFKAKATLTVDKSSSTAYMQLKSLTSEDFAVYYCTRRAAYYFDYWGQGTTLTVSS
VL: QIVLTQSPALMSASPGEKVTMTCSASSSVNYMYWYQQKPRSSPKPWIYLTSNLASGVPARFSGSGSGTSYSLTISSMEAEDAATYYCQQWSSNPRTFGGGTKLEIK
notes: Mouse IgG1, kappa; also called recombinant 3C7-3-1 antibody (mouse IgG1, kappa)
B1 was tested, and the “binding activity, fold of the R&D antibody” value [2] was 23.3 fold, the binding result [3] was “binds” and the Kd [4] was 0.0264 nM. The “BMP9-dependent ALK1-derived signal inhibitory activity (luciferase, human ALK1 reporter cells ALK1/p(GCCG)12-Luc/HepG2(38.5), 10 ng/mL BMP9)” value [5] was ~0.0625 fold of the R&D antibody and the binding result [6] was “no binding (tested: 100 ng/mL antibody)”.

B2: 3B7-3-3 antibody (antibody, V domains shown)
VH: EVQLQQSRPELVKPGASVKISCKASDYSFTDYYMNWVKQSPDKSLEWIGEISPSSGGTTYNQKFKAKATLTVDKSSSTAYMQLKSLTSEDSAVYYCATRGAFYFDYWGQGTALTVSS
VL: QIVLTQSPALMSAFPGEKVTMTCSASSSVSYMYWYQQKPRSSPKPWIYLTSNLASGVPTRFSGSGSGTSYSLTISSMEAEDAATYFCQQWSSNPRTFGGGTKLEIK
notes: Mouse monoclonal antibody from a hybridoma (BMP9 KO mouse); also called anti-human BMP9 monoclonal antibody 3B7-3-3
B2: binds [7]; no binding (tested: 100 ng/mL antibody) [6].
